We go through 4 molecules from patent US11231420 (APTALOGIC, INC.).

The Kd is the equilibrium constant for the complex coming apart.

One data set concerns the target EBOV GP1,2 (UniProt Q05320 Q05320:33-650). Nature of the data set: filter. Particulars: label: 5'-32P.
The target in data set [1] is T1, EBOV sGP (soluble glycoprotein) (Zaire ebolavirus, UniProt P60170 P60170:33-324). Nature of the data set: filter; PBS with 5 mM Mg, pH 7. As to conditions: tags: His-tag; chain copies: 2; label: 5'-32P.
T1 sequence (P60170 33-324, one chain of several): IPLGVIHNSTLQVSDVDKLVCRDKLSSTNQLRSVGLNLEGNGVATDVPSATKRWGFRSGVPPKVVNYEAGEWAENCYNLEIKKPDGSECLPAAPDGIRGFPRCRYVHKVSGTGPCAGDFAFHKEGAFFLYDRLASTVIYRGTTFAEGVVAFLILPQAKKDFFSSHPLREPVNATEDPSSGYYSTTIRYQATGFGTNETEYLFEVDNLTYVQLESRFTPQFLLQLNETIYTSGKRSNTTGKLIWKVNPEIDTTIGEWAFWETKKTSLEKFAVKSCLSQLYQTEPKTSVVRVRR
The target in data set [2] is T2, Human serum albumin (HSA) (Homo sapiens, UniProt P02768 P02768:25-609). The data set is described as follows: filter; HSA up to 6 uM. Particulars: label: 5'-32P.
T2 sequence (P02768 25-609, one chain of several): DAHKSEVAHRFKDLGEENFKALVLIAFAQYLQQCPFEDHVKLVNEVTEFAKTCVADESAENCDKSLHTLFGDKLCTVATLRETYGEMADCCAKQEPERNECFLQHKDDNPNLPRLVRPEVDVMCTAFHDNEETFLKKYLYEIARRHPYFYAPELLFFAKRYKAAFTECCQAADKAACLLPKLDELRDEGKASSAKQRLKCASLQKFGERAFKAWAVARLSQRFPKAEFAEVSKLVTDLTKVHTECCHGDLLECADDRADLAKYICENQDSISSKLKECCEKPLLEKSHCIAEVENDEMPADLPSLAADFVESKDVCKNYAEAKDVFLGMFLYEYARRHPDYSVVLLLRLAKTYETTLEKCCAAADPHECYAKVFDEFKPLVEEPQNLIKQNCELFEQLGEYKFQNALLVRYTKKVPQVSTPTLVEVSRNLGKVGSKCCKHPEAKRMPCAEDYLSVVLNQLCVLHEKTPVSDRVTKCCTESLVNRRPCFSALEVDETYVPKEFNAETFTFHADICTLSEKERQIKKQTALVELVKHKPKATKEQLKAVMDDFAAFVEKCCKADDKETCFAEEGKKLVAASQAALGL
Data set [3] addresses T3, Lcn2 (lipocalin 2, uterocalin) (UniProt P11672 P11672:21-200).
T3 sequence: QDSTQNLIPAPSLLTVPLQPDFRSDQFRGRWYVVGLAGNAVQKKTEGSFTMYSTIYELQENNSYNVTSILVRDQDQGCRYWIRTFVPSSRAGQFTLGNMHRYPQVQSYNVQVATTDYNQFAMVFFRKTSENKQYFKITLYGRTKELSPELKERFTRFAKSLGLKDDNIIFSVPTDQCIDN
Nature of the data set: filter; text says Lcn2 not bound by the aptamers. As to conditions: tags: His-tag; label: 5'-32P.

Data set [4] concerns the target T1, EBOV sGP (soluble glycoprotein). The data set is described as follows: filter. Particulars: tags: His-tag; chain copies: 2; label: 5'-32P.
Data set [5] has as its target T4, SUDV sGP (soluble glycoprotein) (Sudan ebolavirus, UniProt Q7T9E0 Q7T9E0:33-324).
T4 sequence: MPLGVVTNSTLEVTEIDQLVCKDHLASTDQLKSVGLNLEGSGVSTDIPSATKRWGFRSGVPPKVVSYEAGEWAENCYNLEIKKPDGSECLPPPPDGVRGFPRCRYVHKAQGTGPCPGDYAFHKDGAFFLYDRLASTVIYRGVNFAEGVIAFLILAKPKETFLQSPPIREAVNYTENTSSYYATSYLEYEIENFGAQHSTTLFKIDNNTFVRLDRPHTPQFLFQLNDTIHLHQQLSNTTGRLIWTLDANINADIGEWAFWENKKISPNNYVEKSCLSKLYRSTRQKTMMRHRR
The data set is described as follows: filter; no serum. Particulars: chain copies: 2; label: 5'-32P.

In data set [6] the target is T3, Lcn2 (lipocalin 2, uterocalin). Nature of the data set: filter; no serum. Particulars: tags: His-tag; label: 5'-32P.
Data set [7] has as its target T2, Human serum albumin (HSA). Nature of the data set: filter; HSA tested up to 6 uM; estimated. Particulars: label: 5'-32P.

EBOV GP1,2, sequence (Q05320 33-650, one chain of several): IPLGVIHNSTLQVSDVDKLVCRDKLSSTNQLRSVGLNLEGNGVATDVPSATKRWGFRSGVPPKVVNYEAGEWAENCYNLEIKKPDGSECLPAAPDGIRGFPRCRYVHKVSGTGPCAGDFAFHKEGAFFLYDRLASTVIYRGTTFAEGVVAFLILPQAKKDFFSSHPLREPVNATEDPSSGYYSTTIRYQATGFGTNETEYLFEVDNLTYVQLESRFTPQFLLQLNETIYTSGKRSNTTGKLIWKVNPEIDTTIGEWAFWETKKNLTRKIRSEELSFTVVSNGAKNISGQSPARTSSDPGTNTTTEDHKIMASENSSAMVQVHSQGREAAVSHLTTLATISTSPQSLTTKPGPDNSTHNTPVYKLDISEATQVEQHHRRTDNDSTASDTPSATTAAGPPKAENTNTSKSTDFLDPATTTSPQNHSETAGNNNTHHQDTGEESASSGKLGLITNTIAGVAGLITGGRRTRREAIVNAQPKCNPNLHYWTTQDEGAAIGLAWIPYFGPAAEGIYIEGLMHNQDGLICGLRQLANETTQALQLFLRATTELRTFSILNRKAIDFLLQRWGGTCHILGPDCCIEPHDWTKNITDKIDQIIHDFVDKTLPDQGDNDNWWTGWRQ

B1: Aptamer 6012 (ssDNA)
DNA: GCCTGTTGTGAGCCTCCTGTCGAACGTATTTCTTGCTTCCTTCCTTGCCGCGCACATTGCAGTATAAGTACCTGTCGTTGAGCGTTTATTCTTGTCTCCC
B1: the Kd with EBOV GP1,2 is 22 nM; in data set [1], 90 nM. Also, the binding result in data set [2] and in data set [3] was “no binding” in each case.

B2: Aptamer 6011 (ssDNA)
DNA: GCCTGTTGTGAGCCTCCTGTCGAACAACCACTCATATCTACTACATGACTTGCTCCATTCTGTTCTTTCTCTACGCATTGAGCGTTTATTCTTGTCTCCC
With B2, the Kd is 30 nM in data set [4] and 240 nM in data set [5]. The binding result is “binds” with EBOV GP1,2, “no binding” in data set [6] and “no binding” in data set [2].

B3: Aptamer 6021 (ssDNA)
DNA: GCCTGTTGTGAGCCTCCTGTCGAAACTGTACTTCACTTTTACCTCCTCTTGCTCTTATCTGTACTATTGTCTCTCCGTTGAGCGTTTATTCTTGTCTCCC
Turning to B3, the Kd in data set [1] turned out to be 20 nM. The binding result in data set [2] was “no binding”.

B4: Aptamer 6022 (ssDNA)
DNA: GCCTGTTGTGAGCCTCCTGTCGAACCCTATCTTGTTCATGCTATTCTCAATATTTTCGGTTCACTTACCGTCTGCCTTTGAGCGTTTATTCTTGTCTCCC
Turning to B4, the dissociation constant (Kd) in data set [7] was around 100000 nM; in data set [1], 100 nM.
